Values of other authors, collected in patent US6844322B2, “Method for induced lactation” (Monsanto Technology LLC, priority 2000, dated 2005).

System: cows
Details: somatotropin included in the induction protocol (Kensinger et al., 1998)

B1: POSILAC® somatotropin: Sustained-release bovine somatotropin, Monsanto (protein, UniProt P01246 27-217, looked up)
Somatotropin: AFPAMSLSGLFANAVLRAQHLHQLAADTFKEFERTYIPEGQRYSIQNTQVAFCFSETIPAPTGKNEAQQKSDLELLRISLLLIQSWLGPLQFLSRVFTNSLVFGTSDRVYEKLKDLEEGILALMRELEDGTPRAGQILKQTYDKFDTNMRSDDALLKNYGLLSCFRKDLHKTETYLRVMKCRRFGEASCAF
modifications: sustained-release formulation
notes: Sustained-release bovine somatotropin, Monsanto
increase in milk yield compared to cows treated with steroids alone: 17%
